# Assay results: the Human Domainome abundance scans (Beltran et al. 2025)
# ± gives the uncertainty stated by the source.
# B1: POU domain, class 4, transcription factor 2, residues 256 to 327; numbered along this chain, Q12837 (parent)
# chain: RDLEAFAERFKQRRIKLGVTQADVGSALANLKIPGVGSLSQSTICRFESLTLSHNNMIALKPILQAWLEEAE
# Variants of: B1
# Experiment: abundance fitness (aPCA) (normalised: wild type 0, dead -1); higher = more abundant; growth selection in yeast, the domain comes from the species named
# Conditions: Homo sapiens
row,Variant,abundance fitness
1,RDLEAFAERFKQRRIKLGVTQADVGSALANLKIPGVGSLSQSTICRPESLTLSHNNMIALKPILQAWLEEAE,-0.897 ± 0.19
2,RDLEAFAERFKQRRIKLGVTQADVGSALANLKIPGVGSLSQSTICRSESLTLSHNNMIALKPILQAWLEEAE,-0.996 ± 0.15
3,RDLEAFAERFKQRRIKLGVTQADVGSALANLKIPGVGSLSQSTICRQESLTLSHNNMIALKPILQAWLEEAE,-0.59 ± 0.18
4,RDLEAFAERFKQRRIKLGVTQADVGSALANLKIPGVGSLSQSTICRAESLTLSHNNMIALKPILQAWLEEAE,-0.278 ± 0.17
5,RDLEAFAERFKQRRIKLGVTQADVGSALANLKIPGVGSLSQSTICRMESLTLSHNNMIALKPILQAWLEEAE,-0.781 ± 0.17
6,RDLEAFAERFKQRRIKLGVTQADVGSALANLKIPGVGSLSQSTICRCESLTLSHNNMIALKPILQAWLEEAE,-0.214 ± 0.24
7,RDLEAFAERFKQRRIKLGVTQADVGSALANLKIPGVGSLSQSTICRYESLTLSHNNMIALKPILQAWLEEAE,-0.53 ± 0.15
8,RDLEAFAERFKQRRIKLGVTQADVGSALANLKIPGVGSLSQSTICRWESLTLSHNNMIALKPILQAWLEEAE,-0.836 ± 0.12
9,RDLEAFAERFKQRRIKLGVTQADVGSALANLKIPGVGSLSQSTICRVESLTLSHNNMIALKPILQAWLEEAE,-1.06 ± 0.3
10,RDLEAFAERFKQRRIKLGVTQADVGSALANLKIPGVGSLSQSTICRGESLTLSHNNMIALKPILQAWLEEAE,-0.834 ± 0.16
11,RDLEAFAERFKQRRIKLGVTQADVGSALANLKIPGVGSLSQSTICRIESLTLSHNNMIALKPILQAWLEEAE,-0.67 ± 0.38
12,RDLEAFAERFKQRRIKLGVTQADVGSALANLKIPGVGSLSQSTICRRESLTLSHNNMIALKPILQAWLEEAE,-0.864 ± 0.094
13,RDLEAFAERFKQRRIKLGVTQADVGSALANLKIPGVGSLSQSTICRDESLTLSHNNMIALKPILQAWLEEAE,-0.82 ± 0.35
14,RDLEAFAERFKQRRIKLGVTQADVGSALANLKIPGVGSLSQSTICRFASLTLSHNNMIALKPILQAWLEEAE,-0.802 ± 0.13
15,RDLEAFAERFKQRRIKLGVTQADVGSALANLKIPGVGSLSQSTICRFPSLTLSHNNMIALKPILQAWLEEAE,-0.889 ± 0.17
16,RDLEAFAERFKQRRIKLGVTQADVGSALANLKIPGVGSLSQSTICRFLSLTLSHNNMIALKPILQAWLEEAE,-0.93 ± 0.17
17,RDLEAFAERFKQRRIKLGVTQADVGSALANLKIPGVGSLSQSTICRFWSLTLSHNNMIALKPILQAWLEEAE,-1.09 ± 0.24
18,RDLEAFAERFKQRRIKLGVTQADVGSALANLKIPGVGSLSQSTICRFRSLTLSHNNMIALKPILQAWLEEAE,-0.463 ± 0.071
19,RDLEAFAERFKQRRIKLGVTQADVGSALANLKIPGVGSLSQSTICRFSSLTLSHNNMIALKPILQAWLEEAE,-0.644 ± 0.11

row,Variant,abundance fitness
1,RDLEAFAERFKQRRIKLGVTQADVGSALANLKIPGVGSLSQSTICRFHSLTLSHNNMIALKPILQAWLEEAE,-0.818 ± 0.36
2,RDLEAFAERFKQRRIKLGVTQADVGSALANLKIPGVGSLSQSTICRFVSLTLSHNNMIALKPILQAWLEEAE,-1.17 ± 0.26
3,RDLEAFAERFKQRRIKLGVTQADVGSALANLKIPGVGSLSQSTICRFQSLTLSHNNMIALKPILQAWLEEAE,-0.833 ± 0.15
4,RDLEAFAERFKQRRIKLGVTQADVGSALANLKIPGVGSLSQSTICRFGSLTLSHNNMIALKPILQAWLEEAE,-0.594 ± 0.12
5,RDLEAFAERFKQRRIKLGVTQADVGSALANLKIPGVGSLSQSTICRFERLTLSHNNMIALKPILQAWLEEAE,0.032 ± 0.07
6,RDLEAFAERFKQRRIKLGVTQADVGSALANLKIPGVGSLSQSTICRFEGLTLSHNNMIALKPILQAWLEEAE,0.055 ± 0.093
7,RDLEAFAERFKQRRIKLGVTQADVGSALANLKIPGVGSLSQSTICRFEPLTLSHNNMIALKPILQAWLEEAE,-0.537 ± 0.099
8,RDLEAFAERFKQRRIKLGVTQADVGSALANLKIPGVGSLSQSTICRFENLTLSHNNMIALKPILQAWLEEAE,-0.065 ± 0.19
9,RDLEAFAERFKQRRIKLGVTQADVGSALANLKIPGVGSLSQSTICRFECLTLSHNNMIALKPILQAWLEEAE,-0.245 ± 0.14
10,RDLEAFAERFKQRRIKLGVTQADVGSALANLKIPGVGSLSQSTICRFEILTLSHNNMIALKPILQAWLEEAE,-1.03 ± 0.46
11,RDLEAFAERFKQRRIKLGVTQADVGSALANLKIPGVGSLSQSTICRFEHLTLSHNNMIALKPILQAWLEEAE,-0.587 ± 0.3
12,RDLEAFAERFKQRRIKLGVTQADVGSALANLKIPGVGSLSQSTICRFEDLTLSHNNMIALKPILQAWLEEAE,-0.106 ± 0.17
13,RDLEAFAERFKQRRIKLGVTQADVGSALANLKIPGVGSLSQSTICRFEELTLSHNNMIALKPILQAWLEEAE,0.134 ± 0.14
14,RDLEAFAERFKQRRIKLGVTQADVGSALANLKIPGVGSLSQSTICRFEWLTLSHNNMIALKPILQAWLEEAE,-0.485 ± 0.22
15,RDLEAFAERFKQRRIKLGVTQADVGSALANLKIPGVGSLSQSTICRFEFLTLSHNNMIALKPILQAWLEEAE,-0.651 ± 0.24
16,RDLEAFAERFKQRRIKLGVTQADVGSALANLKIPGVGSLSQSTICRFEMLTLSHNNMIALKPILQAWLEEAE,-0.492 ± 0.36
17,RDLEAFAERFKQRRIKLGVTQADVGSALANLKIPGVGSLSQSTICRFEKLTLSHNNMIALKPILQAWLEEAE,0.069 ± 0.3
18,RDLEAFAERFKQRRIKLGVTQADVGSALANLKIPGVGSLSQSTICRFETLTLSHNNMIALKPILQAWLEEAE,-0.035 ± 0.12
19,RDLEAFAERFKQRRIKLGVTQADVGSALANLKIPGVGSLSQSTICRFELLTLSHNNMIALKPILQAWLEEAE,-0.297 ± 0.056
